# Fewer inactive variants are shown than the library holds.
# B1: TPR 5TU (parent)
# chain: GGAUCUUCUCGAUCUAACAAAAAAGACAAAUCUGCCACAAAGCUUGAGAGCAUCUUCGGAUGCAGAGGCGGCAGCCUUCGGUGGCGCGAUAGCGCCAACGUUCUCAACUAUGACACGCAAAACGCGUGCUCCGUUGAAUGGAGUUUAUCAUG
# Variants of: B1
# Assay: polymerase ribozyme fitness, log enrichment relative to wild type (log ratio); higher = more active; in vitro selection for triplet polymerase activity
# How it was run: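 After PCR construction and transcription, each subunit's mutant library from a heterodimeric triplet polymerase ribozyme was annealed with a biotinylated primer, the partner subunit and triplets. Incubation was frozen, at −7 °C, and extended constructs were gel-excised, bound to streptavidin beads and amplified by RT-PCR, in one selection round done in triplicate. Fitness is the logarithm of a genotype's enrichment divided by that of the wild type, from inverse-variance-weighted replicate averages of Illumina-sequenced inputs and outputs. The base of the logarithm is 2, and genotypes needed ≥10 input reads and ≥1 read per output.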
row,Variant,polymerase ribozyme fitness (log ratio)
1,G50A G94C C95G U144C,≤ -4.2
2,G50U G81C U134A,-2.19
3,G50C A122C G143A,-4.06
4,G50A G59A G133U,≤ -4.2
5,C51G U53C G67C G86U U101G A138U,≤ -4.2
6,C51A G86A G126A G128U G141A,≤ -4.2
7,G50C G83U,-3.77
8,C51G A106G,-3.04
9,G50A U53A U56A C75U C116A U134G,≤ -4.2
10,C51G C75U C79A G80C C87A A98U C103G U145G,≤ -4.2
11,G50A U55A C95A,-1.86
12,G50C C95U U146G,-3.64
13,G50U A66C C69U A73C,≤ -4.2
14,C51A U134G U144A,-4.17
15,G50A G58C C99A,≤ -4.2
16,G50U A97U U102A G124A,-2.31
17,G50C G58A C125A,-3.17
18,G50C A73G G84A,-4.1
19,C51A U102A,-1.41
20,C51G A73G C79G C87G G140C U144A,≤ -4.2
21,G50U A52G C75A C85A G92C G126U G128A A147U,≤ -4.2

row,Variant,polymerase ribozyme fitness (log ratio)
1,G50C A91G,-4
2,C51G C85U U144G,-1.3
3,G50A G59A C96U A122U A142G A147U,-3.67
4,G50C A52C G58C,≤ -4.2
5,G50A G141C,-1.77
6,G50U C51U C72U C93G U101C C108A G112U A113U A121G,≤ -4.2
7,C51U A52G C87U A137C,≤ -4.2
8,G50C U78A G92A,≤ -4.2
9,C51A G86C A89U A113U G126A G141U,≤ -4.2
10,G50U U145C,-0.536
11,G50C G83U C93A G100U G124C G128U C132G U145G,≤ -4.2
12,C51A G59U G84U,≤ -4.2
13,G50U G86A C93U C96U,-0.529
14,G50U C125G,-0.442
15,G50U U55A C96U,-0.864
16,G50A G86A C132U G143C C149G,≤ -4.2
17,C51U A52C U82G U135G,-3.54
18,G50A U55A C87G C103U C116G,≤ -4.2
19,G50A G58C C76U C85G G141U,-4.1
20,G50C A52G C57U C93A,≤ -4.2
21,G50C G59C C95G,-3.67

row,Variant,polymerase ribozyme fitness (log ratio)
1,G50A U53A U55A U56A G67C G92A G126U,≤ -4.2
2,G50U G83U C85G,-4.13
3,C51G G62C C85A G143A,-1.5
4,G50C C51U G92U,-2.09
5,G50U C75G G86U C87A A89U,≤ -4.2
6,G50C U90C U104G,≤ -4.2
7,C51A G86U C108G A137C,≤ -4.2
8,G50U G86C A120C,-3.03
9,C51G C79G G86U C114U U134A,≤ -4.2
10,G50U G70A G136U,≤ -4.2
11,G50C A73G C87A,≤ -4.2
12,G50C U130C,-1.3
13,C51A U127G,-4.1
14,G50C G84A U104C A106C,≤ -4.2
15,G50C A64C U82G C87G A106U A122C,≤ -4.2
16,G50A C103U,-1.49
17,G50A G65A A89U U101A A106C,-4.2
18,G50C C69A C75U,≤ -4.2
19,G50A U55A G70A G83C U101A U104A C105G G124U,≤ -4.2
20,C51A G84A U144A,-2.52
21,C51A A52G,-0.455

row,Variant,polymerase ribozyme fitness (log ratio)
1,G50C G59A U145C,-3.51
2,G50C C93G U104C,≤ -4.2
3,G50A U102A,-3.08
4,G50A G92A A106G,≤ -4.2
5,C51U A52G A60U A66G C103U A107U C114U C123G G143A,≤ -4.2
6,G50C C54U G86A C108U,≤ -4.2
7,G50A G83C C93G A97C C132G A137G G140U,≤ -4.2
8,G50A U77A A106U A113G A121U C131U,≤ -4.2
9,C51G C87A,≤ -4.2
10,G50U U55G C75A A97G A137U U151A,≤ -4.2
11,C51A G86A C118A,-3.43
12,G50A U53C U56A A91U G94C A142C,≤ -4.2
13,G50A G143C,-3.85
14,G50A G62A G117A,-1.7
15,G50C G67A U90G A142G,≤ -4.2
16,C51A G68U U82C C116U U146G,≤ -4.2
17,G50C U56C C87G A89C G100C A120G C125U,≤ -4.2
18,C51G C79A,≤ -4.2
19,G50A U53A A91U G124A C131G A137C,≤ -4.2
20,C51G C125U U144C,-4.07
21,G50C C57A A66C C85G,≤ -4.2
